Reference: the Immune Epitope Database (IEDB)

Legend:
Assay in all cases: IEDB peptide-MHC binding, purified MHC/competitive/radioactivity; filed as Kd, often an IC50 or EC50 that approximates it; ≥ and ≤ were set here for values at or beyond the usual limits of such assays
HLA-A*33:01 = target: HLA-A*33:01
HLA-A*68:01 = target: HLA-A*68:01
HLA-A*11:01 = target: HLA-A*11:01
HLA-A*03:01 = target: HLA-A*03:01
HLA-A*31:01 = target: HLA-A*31:01
HLA-A*02:03 = target: HLA-A*02:03
HLA-A*02:06 = conditions: source organism: Dengue virus 2 Jamaica/1409/1983
[1] = source organism: SARS coronavirus Tor2
[2] = source organism: Dengue virus 2 Jamaica/1409/1983
[3] = source organism: Vaccinia virus WR
[4] = source organism: Lassa virus Josiah
[5] = source organism: Mammarenavirus whitewaterense
[6] = source organism: Mammarenavirus juninense

Sequence | Kd (HLA-A*33:01; [3]) | Kd (HLA-A*68:01; [3]) | Kd (HLA-A*11:01; [3]) | Kd (HLA-A*03:01; [3]) | Kd (HLA-A*31:01; [3]) | also measured
STRHPSKLR | – | – | – | – | – | Kd (HLA-A*33:01; [1]): 0.246 µM; Kd (HLA-A*68:01; [1]): 0.101 µM; Kd (HLA-A*11:01; [1]): 3.21 µM; Kd (HLA-A*03:01; [1]): 0.44 µM; Kd (HLA-A*31:01; [1]): 0.00974 µM
KLASAIQKA | – | – | – | – | – | Kd (HLA-A*02:03; [2]): 0.0179 µM
ASTTENAAY | 3.88 µM | 2.42 µM | 0.307 µM | 2.17 µM | ≥ 71.4 µM | –
RVILAGPMPV | – | – | – | – | – | Kd (HLA-A*02:06): 0.0319 µM; Kd (HLA-A*02:03; [2]): 0.00776 µM
IMLPESDLDK | ≥ 70 µM | 1.67 µM | 0.393 µM | 0.609 µM | 0.489 µM | –
YTHGIVFDGK | 0.35 µM | 0.00456 µM | 0.00846 µM | 0.00746 µM | 0.156 µM | –
LMTLDDLAIK | ≥ 20.9 µM | 2.49 µM | 0.478 µM | 1.67 µM | ≥ 40.7 µM | –
DVLEIINDK | 0.719 µM | 0.72 µM | 4.58 µM | ≥ 53.5 µM | ≥ 53.3 µM | –
NQNLIPSTVK | ≥ 70 µM | 0.406 µM | 0.36 µM | 14.1 µM | ≥ 24.8 µM | –
FIKPVSDLY | 0.501 µM | 0.252 µM | 0.832 µM | 0.647 µM | 0.634 µM | –
AISDYDYYR | – | – | – | – | – | Kd (HLA-A*33:01; [1]): 0.49 µM; Kd (HLA-A*68:01; [1]): 0.118 µM; Kd (HLA-A*11:01; [1]): 0.065 µM; Kd (HLA-A*03:01; [1]): 0.0865 µM; Kd (HLA-A*31:01; [1]): 0.026 µM
GFCIPSRSK | ≥ 77.7 µM | ≥ 38.6 µM | 1.9 µM | 0.973 µM | 0.179 µM | –
KSLLLLNTR | 1.16 µM | 16.9 µM | 0.114 µM | 0.689 µM | 0.000627 µM | –
KLALITVSGL | – | – | – | – | – | Kd (HLA-A*02:03; source organism: Dengue virus 4 Philippines/H241/1956): 0.00732 µM
PSLEYGANY | 7.94 µM | ≥ 60.6 µM | ≥ 21.7 µM | 17.1 µM | ≥ 10 µM | –
LQFTSLEIPR | – | – | – | – | – | Kd (HLA-A*33:01; [1]): 1.21 µM; Kd (HLA-A*68:01; [1]): 0.402 µM; Kd (HLA-A*11:01; [1]): 0.85 µM; Kd (HLA-A*03:01; [1]): 0.804 µM; Kd (HLA-A*31:01; [1]): 0.0305 µM
ENAVWDQYK | – | – | – | – | – | Kd (HLA-A*33:01; [4]): 0.958 µM; Kd (HLA-A*68:01; [4]): 0.0429 µM; Kd (HLA-A*11:01; [4]): 6.64 µM; Kd (HLA-A*03:01; [4]): 12.6 µM; Kd (HLA-A*31:01; [4]): ≥ 22.5 µM

Sequence | Kd (HLA-A*33:01; [3]) | Kd (HLA-A*68:01; [3]) | Kd (HLA-A*11:01; [3]) | Kd (HLA-A*03:01; [3]) | Kd (HLA-A*31:01; [3]) | also measured
MSAPPAEYK | – | – | – | – | – | Kd (HLA-A*33:01; [1]): 1.86 µM; Kd (HLA-A*68:01; [1]): 0.00236 µM; Kd (HLA-A*11:01; [1]): 0.000948 µM; Kd (HLA-A*03:01; [1]): 0.00414 µM; Kd (HLA-A*31:01; [1]): 0.0378 µM
QSYRQYRNY | 0.109 µM | 17.1 µM | 1.6 µM | 2.56 µM | 2.27 µM | –
GLALYYPSAR | – | – | – | – | – | Kd (HLA-A*33:01; [1]): 2.84 µM; Kd (HLA-A*68:01; [1]): 0.0898 µM; Kd (HLA-A*11:01; [1]): 1.12 µM; Kd (HLA-A*03:01; [1]): 0.226 µM; Kd (HLA-A*31:01; [1]): 0.993 µM
KCFANNQDER | – | – | – | – | – | Kd (HLA-A*33:01; [5]): ≥ 70 µM; Kd (HLA-A*68:01; [5]): 6.89 µM; Kd (HLA-A*11:01; [5]): ≥ 60.3 µM; Kd (HLA-A*03:01; [5]): ≥ 70 µM; Kd (HLA-A*31:01; [5]): 6.69 µM
NIERQDYRR | 0.924 µM | 0.119 µM | 12 µM | ≥ 66.8 µM | 1.5 µM | –
HSNLTETFR | 0.00495 µM | 0.000414 µM | 0.0406 µM | 0.112 µM | 0.000596 µM | –
CVFAYVGCY | – | – | – | – | – | Kd (HLA-A*33:01; [1]): ≥ 20.6 µM; Kd (HLA-A*68:01; [1]): 4.12 µM; Kd (HLA-A*11:01; [1]): ≥ 27.5 µM; Kd (HLA-A*03:01; [1]): 19.2 µM; Kd (HLA-A*31:01; [1]): 11.9 µM
EVGSIRCVK | 0.083 µM | 0.00119 µM | 0.332 µM | 0.543 µM | 5.91 µM | –
RQLFKPLTKK | – | – | – | – | – | Kd (HLA-A*33:01; [1]): 3.67 µM; Kd (HLA-A*68:01; [1]): 2.13 µM; Kd (HLA-A*11:01; [1]): 0.00816 µM; Kd (HLA-A*03:01; [1]): 0.00105 µM; Kd (HLA-A*31:01; [1]): 0.383 µM
RQQLEDIFMR | ≥ 58.8 µM | 2.56 µM | 10.2 µM | 4.83 µM | 7 µM | –
DISKLTNFK | 0.048 µM | 0.00121 µM | 0.338 µM | 0.781 µM | 5.48 µM | –
SVSPKLFIR | – | – | – | – | – | Kd (HLA-A*33:01; [1]): 12.5 µM; Kd (HLA-A*68:01; [1]): 1.42 µM; Kd (HLA-A*11:01; [1]): 0.755 µM; Kd (HLA-A*03:01; [1]): 7.45 µM; Kd (HLA-A*31:01; [1]): 0.116 µM
TAVAKCNLNH | – | – | – | – | – | Kd (HLA-A*33:01; [6]): 9.99 µM; Kd (HLA-A*68:01; [6]): ≥ 70.1 µM; Kd (HLA-A*11:01; [6]): ≥ 69.7 µM; Kd (HLA-A*03:01; [6]): ≥ 70 µM; Kd (HLA-A*31:01; [6]): ≥ 70 µM
AIITPVVFYR | 0.311 µM | 0.00172 µM | 0.0113 µM | 3.7 µM | 0.0116 µM | –
TVVQRCASNK | – | – | – | – | – | Kd (HLA-A*33:01; [1]): 7.49 µM; Kd (HLA-A*68:01; [1]): 0.122 µM; Kd (HLA-A*11:01; [1]): 0.103 µM; Kd (HLA-A*03:01; [1]): 0.14 µM; Kd (HLA-A*31:01; [1]): 0.224 µM
STVKTNLYMK | ≥ 70 µM | 0.00227 µM | 0.00396 µM | 0.212 µM | 0.64 µM | –
YIPGTSVIR | 2.9 µM | 0.0404 µM | ≥ 77.9 µM | ≥ 78 µM | 0.664 µM | –
